The values below come from patent US20240287172A1 (SCIRHOM, published 2024).

The chains are these.
T1: hiR2-FL-S561A-T7 (human, UniProt Q6PJF5 1-856)
T1 sequence: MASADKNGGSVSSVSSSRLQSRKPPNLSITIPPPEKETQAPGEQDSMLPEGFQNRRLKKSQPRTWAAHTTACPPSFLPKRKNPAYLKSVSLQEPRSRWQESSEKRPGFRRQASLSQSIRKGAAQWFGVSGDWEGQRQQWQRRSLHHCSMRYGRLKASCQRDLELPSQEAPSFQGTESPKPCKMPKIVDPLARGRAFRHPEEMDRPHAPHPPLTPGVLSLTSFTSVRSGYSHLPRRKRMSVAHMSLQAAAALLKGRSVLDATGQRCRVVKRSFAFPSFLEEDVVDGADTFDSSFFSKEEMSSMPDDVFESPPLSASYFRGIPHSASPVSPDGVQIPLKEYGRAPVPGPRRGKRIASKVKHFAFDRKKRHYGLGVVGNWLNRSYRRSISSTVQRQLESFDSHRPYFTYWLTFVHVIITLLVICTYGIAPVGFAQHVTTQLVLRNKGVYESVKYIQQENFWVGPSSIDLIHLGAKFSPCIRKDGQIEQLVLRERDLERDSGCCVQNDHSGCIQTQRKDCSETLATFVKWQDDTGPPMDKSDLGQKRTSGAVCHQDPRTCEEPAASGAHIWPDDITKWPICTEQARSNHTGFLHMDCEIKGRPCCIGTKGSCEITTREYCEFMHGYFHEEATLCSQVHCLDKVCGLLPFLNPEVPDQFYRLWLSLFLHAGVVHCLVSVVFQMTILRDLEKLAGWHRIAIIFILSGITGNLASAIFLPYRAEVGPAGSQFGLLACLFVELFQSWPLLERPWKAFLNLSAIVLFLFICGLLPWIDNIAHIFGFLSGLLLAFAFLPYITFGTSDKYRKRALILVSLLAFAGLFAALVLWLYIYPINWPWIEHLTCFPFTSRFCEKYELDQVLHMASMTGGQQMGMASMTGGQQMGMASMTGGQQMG

T2: hiR2-FL-C508A-T7 (human, UniProt Q6PJF5 1-856)
T2 construct: reduced surface expression reported
T2 sequence: T1 sequence with C508A, A561S

B1: antibody 5 (antibody, V domains shown)
VH: QVTLKESGPGILQPSQTLSLTCSFSGFSLSTFGMGVGWIRQPSGKGLEWLAHIWWDDEKYYNSALKSRLTISKATSKNQAFLKIANVDTADTATYYCARISNYGSNYWYFNVWGTGTTVTVSS
VL: QVVLTQSPALMSASPGEKVTMTCSAGSSVSCMYWYQQKPGSSPRVLIYDTSNLASGVPARFTGSGSGTSYSLTISRMEAEDAASYYCQQWNSYPLTFGAGTKLELK
notes: mouse IgG, kappa light chain; also called clone #5; purified antibody 5
B2: antibody 43 (antibody, V domains shown)
VH: B1 VH with T3A, P42S, H52N, E58D, S63P, A74D, T75A, S101G, N111D
VL: QIVLTQSPAIMSASPGERVTMTCSANSRISYMYWYQQKPGSSPRLLIYDTSNLASGVPVRFSGSGSGTSYSLTISRMEAEDAATYNCQQWSSYPLTFGAGTKLELK
notes: mouse IgG, kappa light chain; also called clone #43; purified antibody 43
B3: antibody 44 (antibody, V domains shown)
VH: B1 VH with G44E, E58D, S63P, A74D, A80I, A85T, D91E, A98S, S101G, N111D
VL: QIVLTQSPAVMSASPGEKVTMTCTASSSVYYMYWYQQTPGSSPRLLIYDTSNLASGVPVRFSGSGSGTSYSLTISRMEAEDAATYYCQQWNTYPLTFGAGTKLELK
notes: mouse IgG, kappa light chain; also called clone #44; purified antibody 44
B4: antibody 42 (antibody, V domains shown)
VH: B1 VH with F24L, M34R, S63P, A74D, A80V, K83R, S101Q, N111D
VL: B2 VL with Q1L, R18K, S24G, N26T, Y33F, L45V, M77V, A82V, N86Y, S91N
notes: mouse IgG, kappa light chain; also called clone #42; purified antibody 42
B5: antibody 22 (antibody, V domains shown)
VH: B1 VH with A80V
VL: B1 VL with C31Y, S84T
notes: mouse IgG, kappa light chain; also called clone #22; purified antibody 22
B6: antibody 3 (antibody, V domains shown)
VH: QVTLKESGPGILQPSQTLSLTCSFSGFSLTTFAMGIGWVRQPSGKGLEWLAHIWWDGEKYNNPVLKSRLTISKDTSKNQVFLRIANVDTPDTATYYCARISSIYYIIDNWGQGTSVTVSS
VL: DIVLTQSPATLSVTPGHSVSLSCRASQSISNNLHWYQKKSHESPRLLIKYVSQSISGIPSRFSGSGSGTDFTLSINSVETEDFGMYFCQQSYNWPLTFGAGTKLELK
notes: mouse IgG, kappa light chain; also called clone #3; purified antibody 3
B7: antibody 34 (antibody, V domains shown)
VH: QVTLKESGPGILQPSQTLSLTCSFSGFSLSTFSLGVGWIRQSSGKGLEWLAHIWWDDEKYYNPALKSRLTISKDTSKNQVFLKIANVDAADTATYYCARAYYSKSYYALDYWGQGTSVTVSS
VL: DIQMTQSPSSLSASLGERVSLTCRASQEISGYLSWLQQKPDGTIKRLIYAASTLDSGVPKRFSGSRSGSDYSLAISSLESEDFADYYCLQYANFPFTFGSGTKLEIK
notes: mouse IgG, kappa light chain; also called clone #34; purified antibody 34

Positions count from the first letter of the chain named.

For the first assay, the target named is T1, hiR2-FL-S561A-T7. The assay is described as follows: FACS on MEF-DKO cells expressing the variant, 3 µg/ml antibody. As for the experimental part: (§1) To pellet cells and remove supernatants, the plates were centrifuged at 1,500 rpm and 4° C. for 3 minutes. For primary staining, cells were resuspended in 100 μl per well of either FACS buffer alone (controls) or the purified antibodies 3, 5, 16, 22, 34, 42, 43, 44, 48, and 50 of the invention at 3 μg/ml in FACS buffer and incubated on ice for 1 hour. Afterwards, plates were centrifuged at 1,500 rpm and 4° C. for 3 minutes and washed twice with 200 μl per well of FACS buffer. For secondary staining, cells were spun down and resuspended in 100 μl per well of PE-conjugated goat anti-mouse IgG F(ab′)2 detection fragment (Dianova, Germany) diluted 1:100 in FACS buffer. Protected from light, the cell suspensions were incubated on ice for 1 hour. Plates were then centrifuged at 1,500 rpm and 4° C. for 3 minutes and washed three times with 200 μl per well of FACS buffer. Finally, cells were resuspended in 150 μl per well of FACS buffer and analyzed using a BD Accuri™ C6 Plus flow cytometer (Becton Dickinson, Germany).
B1: the “loss of binding vs wild type” value is not below 30%.

Take B2: the “loss of binding vs wild type” value was not below 30%.

On to B3, for which the “loss of binding vs wild type” value was not below 30%.

Regarding B4, the “loss of binding vs wild type” value is not below 30%.

In the case of B5, the “loss of binding vs wild type” value was not below 30%.

With B6, the “loss of binding vs wild type” value is not below 30%.

Take B7: the “loss of binding vs wild type” value was not below 30%.

In another assay the target is T2, hiR2-FL-C508A-T7. The description is as above. The protocol: as §1
Regarding B1, the “loss of binding vs wild type” value was not below 30%.

Turning to B2, the “loss of binding vs wild type” value is not below 30%.

In the case of B3, the “loss of binding vs wild type” value is not below 30%.

Consider B4, for which the “loss of binding vs wild type” value was not below 30%.

Take B5: the “loss of binding vs wild type” value is not below 30%.

In the case of B7, the “loss of binding vs wild type” value is not below 30%.
